The source of these data is patent US20200317779A1.

Experiment [1] concerns the target recombinant human CD3ε/δ heterodimer (human) (UniProt P07766). Briefly: ELISA, coated CD3ε/δ. Background: ELISA stands for enzyme-linked immunosorbent assay.
Experiment [2] addresses recombinant cynomolgus monkey CD3ε/δ heterodimer (cynomolgus monkey) (UniProt Q95LI5). The experiment is described as follows: ELISA, coated CD3ε/δ.
Experiment [3] deals with recombinant human CD3ε/δ heterodimer (human) (UniProt P07766). Briefly: BLI (Octet), antigen on anti-Penta His sensor, antibody 50 nM.
recombinant human CD3ε/δ heterodimer (human), sequence (P07766 23-126, stated change not applied, chain 1 of 2): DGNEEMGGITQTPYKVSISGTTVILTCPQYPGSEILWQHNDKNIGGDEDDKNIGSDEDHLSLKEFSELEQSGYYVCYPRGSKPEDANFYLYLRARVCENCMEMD
recombinant human CD3ε/δ heterodimer (human), sequence (P04234 22-105, stated change not applied, chain 2 of 2, further chain): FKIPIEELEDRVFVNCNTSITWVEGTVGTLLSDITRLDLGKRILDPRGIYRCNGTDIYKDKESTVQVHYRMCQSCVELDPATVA
Experiment [4] concerns the target recombinant cynomolgus monkey CD3ε/δ heterodimer (cynomolgus monkey) (UniProt Q95LI5). Described as above.

recombinant cynomolgus monkey CD3ε/δ heterodimer (cynomolgus monkey), sequence (Q95LI5 22-117, stated change not applied, chain 1 of 2): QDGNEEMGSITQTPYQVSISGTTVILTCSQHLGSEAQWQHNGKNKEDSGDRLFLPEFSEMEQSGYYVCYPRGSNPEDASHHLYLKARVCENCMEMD
recombinant cynomolgus monkey CD3ε/δ heterodimer (cynomolgus monkey), sequence (Q95LI8 22-105, stated change not applied, chain 2 of 2, further chain): as the sequence (P04234 22-105, stated change not applied, chain 2 of 2, further chain) above, with I5V, N15K, I20V, S32T, D33N, I34N, T64A, S74N, V83L counted along it

B1: C07 (antibody, human IgG1, lambda, L234A L235A, V domains shown)
VH: EVQLVESGGGLVQPGGSLKLSCAASGFTFNTYAMNWVRQASGKGLEWVGRIRSKYNNYATYYADSVKDRFTISRDDSQSTAYLQMNSLKTEDTAVYYCVRHGNFGNSYVSWFAYWGQGTLVTVSS
VL: QAVVTQEPSLTVSPGGTVTLTCRSSTGAVTTSNYANWFQQKPGQAPRGLIGGTNKRAPWTPARFSGSLLGGKAALTLSGAQPEDEAEYYCALWYSNLWVFGGGTKLTVLG
For the molecule B1, in experiment [1], the Absorbance (450 nm) came out at 0.96. Further, the Absorbance (450 nm) in experiment [2] was 2.6. In experiment [3], the Kd (usually the equilibrium constant for the complex coming apart) worked out at 23 nM; the koff (usually a measure of how fast the partners let go of each other) was found to be 0.00349 s⁻¹; the kon (in general, the rate constant with which the complex forms) stood at 152000 M⁻¹ s⁻¹. Besides, in experiment [4], the Kd is 27.5 nM, the koff was determined as 0.00535 s⁻¹ and the kon amounted to 194000 M⁻¹ s⁻¹.

B2: C15 (antibody, human IgG1, lambda, L234A L235A, V domains shown)
VH: EVQLVESGGGLVQPGGSLKLSCAASGFTFNTYAMNWVRQASGKGLEWVGRIRSKYNNYATYYADSVKDRFTISRDDSQSTAYLQMNSLKTEDTAVYYCVRHGNFGNSYVSWFAYWGQGTLVTVSS
VL: QAVVTQEPSLTVSPGGTVTLTCRSSTGAVTTSNYANWVQQKPGQAPRGLIGGTNKRAPWTPARFSGSLLGGKAALTLSGAQPEDEAEYYCALWYSNLWVFGGGTKLTVLG
Regarding B2, the Absorbance (450 nm) in experiment [1] worked out at 2.45; in experiment [2], 2.81. For the same molecule, the values for the Kd in experiment [3] and in experiment [4] were 0.43 nM and 0.653 nM, respectively. The koff came out at 0.000162 s⁻¹ in experiment [3] and 0.000343 s⁻¹ in experiment [4]. In addition, the kon in experiment [3] was determined as 376000 M⁻¹ s⁻¹; in experiment [4], 525000 M⁻¹ s⁻¹.

B3: D07 (antibody, human IgG1, lambda, L234A L235A, V domains shown)
VH: EVQLVESGGGLVQPGGSLKLSCAASGFTFNTYAMNWVRQASGKGLEWVGRIRSKYNNYATYYADSVKDRFTISRDDSQSTLYLQMNSLKTEDTAVYYCVRHGNFGNSYVSWFAYWGQGTLVTVSS
VL: QAVVTQEPSLTVSPGGTVTLTCRSSTGAVTTSNYANWFQQKPGQAPRGLIGGTNKRAPWTPARFSGSLLGGKAALTLSGAQPEDEAEYYCALWYSNLWVFGGGTKLTVLG
For the molecule B3, the Absorbance (450 nm) in experiment [1] is 1.17. In experiment [2], the Absorbance (450 nm) was 2.39. Besides, in experiment [3], the Kd worked out at 19 nM, the koff is 0.00214 s⁻¹ and the kon turned out to be 113000 M⁻¹ s⁻¹. Moreover, in experiment [4], the Kd turned out to be 20 nM, the koff is 0.00284 s⁻¹ and the kon worked out at 143000 M⁻¹ s⁻¹.

B4: D16 (antibody, human IgG1, lambda, L234A L235A, V domains shown)
VH: EVQLVESGGGLVQPGGSLKLSCAASGFTFNTYAMNWVRQASGKGLEWVGRIRSKYNNYATYYADSVKDRFTISRDDSQSTLYLQMNSLKTEDTAVYYCVRHGNFGNSYVSWFAYWGQGTLVTVSS
VL: QAVVTQEPSLTVSPGGTVTLTCRSSTGAVTTSNYANWVQQKPGQAPRGLIGGTNKRAPWTPARFSGSLLGDKAALTLSGAQPEDEAEYYCALWYSNLWVFGGGTKLTVLG
As for B4, the Absorbance (450 nm) in experiment [1] was determined as 2.65. The Absorbance (450 nm) in experiment [2] turned out to be 2.87. In addition, in experiment [3], the Kd is 0.446 nM, the koff turned out to be 0.000107 s⁻¹ and the kon was found to be 240000 M⁻¹ s⁻¹. Also, in experiment [4], the Kd turned out to be 0.611 nM, the koff is 0.000217 s⁻¹ and the association rate constant (kon) amounted to 356000 M⁻¹ s⁻¹.

B5: C16 (antibody, human IgG1, lambda, L234A L235A, V domains shown)
VH: EVQLVESGGGLVQPGGSLKLSCAASGFTFNTYAMNWVRQASGKGLEWVGRIRSKYNNYATYYADSVKDRFTISRDDSQSTAYLQMNSLKTEDTAVYYCVRHGNFGNSYVSWFAYWGQGTLVTVSS
VL: QAVVTQEPSLTVSPGGTVTLTCRSSTGAVTTSNYANWVQQKPGQAPRGLIGGTNKRAPWTPARFSGSLLGDKAALTLSGAQPEDEAEYYCALWYSNLWVFGGGTKLTVLG
Take B5: the Absorbance (450 nm) in experiment [1] was determined as 2.37. Moreover, the Absorbance (450 nm) in experiment [2] amounted to 2.8. In addition, in experiment [3], the Kd was 0.419 nM, the koff was found to be 0.000112 s⁻¹ and the on-rate constant (kon) turned out to be 268000 M⁻¹ s⁻¹. In addition, in experiment [4], the Kd came out at 0.888 nM, the koff was determined as 0.000341 s⁻¹ and the kon turned out to be 384000 M⁻¹ s⁻¹.

B6: D15 (antibody, human IgG1, lambda, L234A L235A, V domains shown)
VH: EVQLVESGGGLVQPGGSLKLSCAASGFTFNTYAMNWVRQASGKGLEWVGRIRSKYNNYATYYADSVKDRFTISRDDSQSTLYLQMNSLKTEDTAVYYCVRHGNFGNSYVSWFAYWGQGTLVTVSS
VL: QAVVTQEPSLTVSPGGTVTLTCRSSTGAVTTSNYANWVQQKPGQAPRGLIGGTNKRAPWTPARFSGSLLGGKAALTLSGAQPEDEAEYYCALWYSNLWVFGGGTKLTVLG
With B6, the Absorbance (450 nm) in experiment [1] was 2.53. In addition, the Absorbance (450 nm) in experiment [2] was found to be 3.01. Moreover, in experiment [3], the Kd was 0.294 nM, the koff was found to be 9.6e-05 s⁻¹ and the kon amounted to 327000 M⁻¹ s⁻¹. Also, in experiment [4], the Kd is 0.533 nM, the koff turned out to be 0.000233 s⁻¹ and the association rate constant (kon) came out at 437000 M⁻¹ s⁻¹.

B7: C08 (antibody, human IgG1, lambda, L234A L235A, V domains shown)
VH: EVQLVESGGGLVQPGGSLKLSCAASGFTFNTYAMNWVRQASGKGLEWVGRIRSKYNNYATYYADSVKDRFTISRDDSQSTAYLQMNSLKTEDTAVYYCVRHGNFGNSYVSWFAYWGQGTLVTVSS
VL: QAVVTQEPSLTVSPGGTVTLTCRSSTGAVTTSNYANWFQQKPGQAPRGLIGGTNKRAPWTPARFSGSLLGDKAALTLSGAQPEDEAEYYCALWYSNLWVFGGGTKLTVLG
Consider B7, for which the Absorbance (450 nm) in experiment [1] turned out to be 0.446. For the same molecule, in experiment [2], the Absorbance (450 nm) was 2.18. For the same molecule, in experiment [3], the Kd was 29.4 nM, the koff came to 0.00317 s⁻¹ and the kon amounted to 108000 M⁻¹ s⁻¹. Also, in experiment [4], the Kd turned out to be 35.6 nM, the off-rate constant (koff) stood at 0.00589 s⁻¹ and the kon is 166000 M⁻¹ s⁻¹.

B8: A07 (antibody, human IgG1, lambda, L234A L235A, V domains shown)
VH: EVQLVESGGGLVQPGGSLKLSCAASGFTFNTYAMNWVRQASGKGLEWVGRIRSKYNNYATYYADSVKDRFTISRDDSKNTAYLQMNSLKTEDTAVYYCVRHGNFGNSYVSWFAYWGQGTLVTVSS
VL: QAVVTQEPSLTVSPGGTVTLTCRSSTGAVTTSNYANWFQQKPGQAPRGLIGGTNKRAPWTPARFSGSLLGGKAALTLSGAQPEDEAEYYCALWYSNLWVFGGGTKLTVLG
Consider B8, for which the Absorbance (450 nm) in experiment [1] came out at 1.31; in experiment [2], 2.55. Besides, the Kd in experiment [3] is 19.5 nM; in experiment [4], 20.5 nM. Besides, the koff was 0.00232 s⁻¹ in experiment [3] and 0.00315 s⁻¹ in experiment [4]. Moreover, the kon in experiment [3] was determined as 119000 M⁻¹ s⁻¹; in experiment [4], 153000 M⁻¹ s⁻¹.

B9: D08 (antibody, human IgG1, lambda, L234A L235A, V domains shown)
VH: EVQLVESGGGLVQPGGSLKLSCAASGFTFNTYAMNWVRQASGKGLEWVGRIRSKYNNYATYYADSVKDRFTISRDDSQSTLYLQMNSLKTEDTAVYYCVRHGNFGNSYVSWFAYWGQGTLVTVSS
VL: QAVVTQEPSLTVSPGGTVTLTCRSSTGAVTTSNYANWFQQKPGQAPRGLIGGTNKRAPWTPARFSGSLLGDKAALTLSGAQPEDEAEYYCALWYSNLWVFGGGTKLTVLG
Turning to B9, in experiment [1], the Absorbance (450 nm) was determined as 0.897. In addition, the Absorbance (450 nm) in experiment [2] was 2.53. Besides, in experiment [3], the equilibrium dissociation constant (Kd) was 35 nM, the koff amounted to 0.00287 s⁻¹ and the kon came to 82000 M⁻¹ s⁻¹. Also, in experiment [4], the Kd was 21.6 nM, the koff turned out to be 0.00266 s⁻¹ and the kon was determined as 123000 M⁻¹ s⁻¹.
